The values that follow are results of earlier work, collected in publication PMC3877210.

The Kd is the free concentration of one partner at which half of the binding sites on the other are occupied at equilibrium, for simple one-to-one binding.

In series [1] the target is integrin β3 cytoplasmic tail (Homo sapiens) (UniProt P05106). Description: NMR.
The target of series [2] is integrin β1 cytoplasmic tail (Homo sapiens) (UniProt P05556). Description: pulldown.
For series [3], the target named is integrin β2 cytoplasmic tail (Homo sapiens) (UniProt P05107). Briefly: SPR.
The target of series [4] is integrin β3 cytoplasmic tail (Homo sapiens) (UniProt P05106). Description: SPR. (In SPR one partner is held on a chip, and binding of the other changes the refractive index at the surface.)

Chain of UniProt P05106 (P05106 742-788): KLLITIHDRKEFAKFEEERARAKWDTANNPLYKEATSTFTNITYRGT
Chain of UniProt P05107 (P05107 724-769): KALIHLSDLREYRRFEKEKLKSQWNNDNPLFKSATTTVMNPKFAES
Chain of UniProt P05556 (P05556 752-798): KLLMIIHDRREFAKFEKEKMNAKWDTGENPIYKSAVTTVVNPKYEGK

In the case of talin F3 F3 (from UniProt Q9Y490), the Kd in series [1] was 273000 nM.
With talin F2-F3 F2-F3 (from UniProt Q9Y490), the Kd in series [2] was 67 nM; in series [3], 12.5 nM; in series [4] it was 91 nM.
